{"source": "patent US20260258113A1", "about": "(US Dept. of Health and Human Services, published 2026)", "binders": {"B1": {"name": "alpha hemoglobin stabilizing protein (other, UniProt Q9NZD4 1-102, looked up)", "chain": "MALLKANKDLISAGLKEFSVLLNQQVFNDPLVSEEDMVTVVEDWMNFYINYYRQQVTGEPQERDKALQELRQELNTLANPFLAKYRDFLKSHELPSHPPPSS", "notes": "Comparison analyte in the BLI assay; also called AHSP"}}, "target": "T1, purified human alpha globin, biotinylated and immobilized on streptavidin biosensors (human, UniProt P69905 2-142, biotinylated using EZ-Link NHS-PEG4 Biotinylation Kit (sites not given))", "T1 construct": "Ligand on the sensor in the bio-layer interferometry assay; also called full-length alpha globin", "T1 sequence (P69905 2-142 limits assumed)": "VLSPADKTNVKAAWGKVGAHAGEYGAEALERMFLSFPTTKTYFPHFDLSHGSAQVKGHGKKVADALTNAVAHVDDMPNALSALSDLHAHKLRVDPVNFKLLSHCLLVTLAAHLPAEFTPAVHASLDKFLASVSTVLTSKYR", "test": "bio-layer interferometry (Octet RED96), biotinylated alpha globin on streptavidin sensors, AHSP in solution at 62.5-1000 nM; AHSP as analyte on immobilized alpha globin (FIG. 2D)"}
{"binder": "B1", "values": [{"measurement": "Kd", "value": 109, "unit": "nM"}]}
